Results taken from the nanobody polyreactivity screen of Harvey et al. (2022).

Test: yeast display, Sf9 membrane polyspecificity reagent, FACS + sequencing; frameworks hold sequencing errors
Method in brief: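 Galactose-induced (36–48 hours) yeast carrying a synthetic nanobody display library were exposed to 10% biotinylated, detergent-solubilized Sf9 membrane reagent at 4 °C for 1 hour. FACS followed streptavidin microbead enrichment, using low and high (top ~1%) gates for expression (anti-HA) and reagent binding (streptavidin). Colony PCR, MiSeq 2 × 250 sequencing and CDR-length filtering followed. Labels for polyreactivity reflect the gate of origin.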
In the case of “QVQLVESGGGLGQAGGSLRLSCAASGRTITFNTMGWYRPAPGKERELVAGIDRGGSTNYADSVKGRFTISRDNAKNTVDLQMNSLKPEDTAVYYCAARNLRYRYRNYDYWGQGTQVTVSS”, the “polyreactivity (PSR sort gate)” value is reported as “high polyreactivity”. In the case of “QVQLVESGGGLGQAGGSLRLSCAASGSIFAGNAMGWYRQAPRKERELVAAISRRGGSTYYADSVKGRFTISRDNAKNTVYLQMNSLKPEDTAVYYCNALLRYAYHAAYGYWGQGTQVTVSS”, the “polyreactivity (PSR sort gate)” value is reported as “high polyreactivity”. With “QVQLVESGGGLGQAGGSLRLSCAASGSIFPAYAMGCYRQAPGKERELVAAITFSGGSTYYADSVKGRFTISRDNAKNTVYLQMNSLKPEDTAVYYCATDSYGWRFNRAITSYGGDYWGQGTQVTVSS” the “polyreactivity (PSR sort gate)” value was “low polyreactivity”. In the case of “QVQLVESGGGLGQAGGSLRLSCAASGSIFPEYVMGWNRQAPGKERELVAAISWSGGSTYYADSVKGRFTISRDNAKNPVFLQMNSLKPEDTAVYYCNRVPSWRIDYDYWGQGTQVTVSS”, the “polyreactivity (PSR sort gate)” value is reported as “low polyreactivity”. For “QVQLVESGGGLGQAGGSLRLSCAASGSIIPWNVMGWSRQARGKEREFVAGITFRVGSTYYADSVKGRFTISRDNAKNTVYLQMNSLKPEDTAVYYCAALIRAVDRYTYRYGYWGQGTQVTVSS”, the “polyreactivity (PSR sort gate)” value was “high polyreactivity”. For “QVQLVESGGGLGQAGGSLRLSCAASGSTFARNTMGWYRQAPGKERELVAVITRGDSTYYADSVKGRFTISRDNAKNTVNLQMNSLKPEDTAVYYCNAYFRYAYPSKMDYWGQGTQVTVSS”, the “polyreactivity (PSR sort gate)” value was “low polyreactivity”. In the case of “QVQLVESGGGLGQAGGSLRLSCAASGSTFPYYAMGWSRPAPGKERELVAVITSSGSRTYYADSVKGRFSMSRDKAKNTVYLQMNSLKPEETAVYYCARDTRYYRPYRSQYDYWGQGTQVTVSS”, the “polyreactivity (PSR sort gate)” value is reported as “high polyreactivity”. With “QVQLVESGGGLGQAGGTLRLTCAASGSIFRTYAMGWYRQAPGKERELVAAITWSGGRTYYADSVKGRFTISRDNATNTVYLPMISLKPDDTAVYYCNAVYLAYGGDYWGQGTQVTVSS” the “polyreactivity (PSR sort gate)” value was “high polyreactivity”. In the case of “QVQLVESGGGLIQAGGSLRLSCAASGIIFYPYTMGWYRQAPGKERELVAAIRQSGTSTYYADSVKGRFTISRDNAKNTVYLQMNSLKPEDTAVYYCAAPPYYSYDYWGQGTQVTVSS”, the “polyreactivity (PSR sort gate)” value is reported as “low polyreactivity”. In the case of “QVQLVESGGGLLHAGGSLRLSCAASGRIFWFYTMGWYRQAPGKERELVAAISDSAGSTYYADSVKGRFTISRDNAKYTVYVPMNSLKPEDTAVYYCDADGWWQYDYWGHGTQVTVSS”, the “polyreactivity (PSR sort gate)” value is reported as “low polyreactivity”. With “QVQLVESGGGLLQAGGRLRLSCAASGSIFPYYAMGWYRQAPGKERALVAAISDSGDSTYYADSVKGRFTMSRDNAKNTVYLQMNSLKPEDTAVYYCAADQTSSYYDPWGDYWGQGTQVTVSS” the “polyreactivity (PSR sort gate)” value was “low polyreactivity”. In the case of “QVQLVESGGGLLQAGGSLRFSCAASGRILAGNAMGWYRQAPGTEREWVAAICSVDSTNYADSVKGRFTISRDNAKNTFYLLMYSLKPEDSAVYYCARVPQYNTYSEFDSWGQGTQVTVSS”, the “polyreactivity (PSR sort gate)” value is reported as “low polyreactivity”. For “QVQLVESGGGLLQAGGSLRLSCAASGFIFRTYAMGWYRQAPGKERELVARISWSGGSTYYADSVKGRFTISRDNAKNTVYLQMNSLITEDTAVYYCARLGTLYESIEYDYWGQGTQVTVSS”, the “polyreactivity (PSR sort gate)” value was “low polyreactivity”. With “QVQLVESGGGLLQAGGSLRLSCAASGFIFSLYAMGWYRQAPGKERELVASINRRGTSTFYADSVKGRFTISLDNAKKTVYLQMNSMKPEDTAVYYCNAYPVAAIRSTGSYDYWGQGTQVTVSS” the “polyreactivity (PSR sort gate)” value was “low polyreactivity”. For “QVQLVESGGGLLQAGGSLRLSCAASGFTFQYNAMGWYRQAPGKERELVAAISRSGTSTYYADSVKGRFTISRDNAKNTVYLQMNSLKPEDTGVYYCNAYYLSGSVYWTGDIYDYWGQGTQVTVSS”, the “polyreactivity (PSR sort gate)” value was “high polyreactivity”. For “QVQLVESGGGLLQAGGSLRLSCAASGFTFSFYARGWYRQAPGKERELVAAISYSGGITYYADSVKGRFTISRDNAKNTVYLQINSLKPEDTAVYYCAAVPGISVGRQPGYDYDYWGHGTQVTVSS”, the “polyreactivity (PSR sort gate)” value was “low polyreactivity”. In the case of “QVQLVESGGGLLQAGGSLRLSCAASGFTFYPNAMGWYRQAPGKERELVAAISRSGSSTYYADSVKGRFTISRDNAKNTVYLQMNSLKPEDTAVYYCNRYGRQYDFYYWGQGTQVTVSS”, the “polyreactivity (PSR sort gate)” value is reported as “high polyreactivity”. With “QVQLVESGGGLLQAGGSLRLSCAASGFTISYNVMGWYRQAPGKERELVAAITYSGGSTYYADSVKGRFTISRDNAKNTVYLQMNSLKPEDTAVYYCAAENGMPMDYWGQGTQVTVSS” the “polyreactivity (PSR sort gate)” value was “low polyreactivity”. With “QVQLVESGGGLLQAGGSLRLSCAASGIIIYYYAMGWYRQAPGKERELVAAITYRGGSTYADSVKGRFTISRDNAKNTVYLQMNSLKPEDTAVYYCNAVWEEKYQAPGSYDYWGQGTQVTVSS” the “polyreactivity (PSR sort gate)” value was “low polyreactivity”. For “QVQLVESGGGLLQAGGSLRLSCAASGITFTSYVMGWYRQAPGKERELVAAIRWSGGRTYYADSVKGRFTISRDNAKYTVYLQMNSLKPEDTAVYYCNRVTRSHVDYWGQGTQVTVSS”, the “polyreactivity (PSR sort gate)” value was “high polyreactivity”. With “QVQLVESGGGLLQAGGSLRLSCAASGRIFAVYAMGWYRQAPGKEREFVAAISYSGGITYYADSVKGRFTISRDNAKNTVYLQMNSLKPEDSAVFYCNSYYYFWGQGTQVTVSS” the “polyreactivity (PSR sort gate)” value was “low polyreactivity”. With “QVQLVESGGGLLQAGGSLRLSCAASGRIFGDYGMGWYRQAPGKERELVAAITDRGGTTYYADSVKGRFTISRDNAKKTVYLQMNSMKPEDNAVYYCNARQSDIFDYDYWGQGTQVTVSS” the “polyreactivity (PSR sort gate)” value was “low polyreactivity”. For “QVQLVESGGGLLQAGGSLRLSCAASGRIFGVYAMGWYRQAPGKEMELVAAISWGGGSTYYADSVKGRFTISRDNAKNTVYLQMISLKPEDTAVFDCAADPPDGFYYTWDYDYWGQGTQVTVSS”, the “polyreactivity (PSR sort gate)” value was “low polyreactivity”. With “QVQLVESGGGLLQAGGSLRLSCAASGRIFHYYAMGWYRQAPGKERELVAGIETSGGSTYYADSVNWRFTISRDNAKNTVYLKLNSLKPEDTAVYYCATDQYYSYDYVYWGQGTQVTVSS” the “polyreactivity (PSR sort gate)” value was “low polyreactivity”. For “QVQLVESGGGLLQAGGSLRLSCAASGRIFYSNAMGWYRQAPGKERELVATRTRRGGGTYYADSVKGRFTISRDNAKNSVYLQMNSLKPVDTAVYSCNAYDILPGGNFWYWYGSWGQGTQVTVSS”, the “polyreactivity (PSR sort gate)” value was “high polyreactivity”. With “QVQLVESGGGLLQAGGSLRLSCAASGRTFSGYTMGWYRQAPGKERELLATIRDRGGSTYYADSVKGRFTISRDNAKNTVYLQMNSLTPEDSAVYYCAARRGRRYYYWGQGTQVTVSS” the “polyreactivity (PSR sort gate)” value was “high polyreactivity”. For “QVQLVESGGGLLQAGGSLRLSCAASGRTFYSNAMGWYRQAPGKERELVATISSGGSTNYADSVKGRFTISRDNAKNTVYLQMNSLKPEDTAVYYCAKRTHQFGVSRSYNTYYYWGQGTQVTVSS”, the “polyreactivity (PSR sort gate)” value was “low polyreactivity”. In the case of “QVQLVESGGGLLQAGGSLRLSCAASGRTFYVYAMGWYRQAPGKEREFVAAIDWGGGTTYYADSVKGRFTISRDNAKNNVYLQMNCLKPEDTAVYYCNAAYTDRFYYWGQGTQVTVSS”, the “polyreactivity (PSR sort gate)” value is reported as “high polyreactivity”. With “QVQLVESGGGLLQAGGSLRLSCAASGSIFGYYAMGWYRQAPGKERELVAAISRSGGSTYYADSVKGRFTISRDNAKNTVYLQMNSLKPEDTAVYYCAADDYPYGNYYWGQGTQVTVSS” the “polyreactivity (PSR sort gate)” value was “high polyreactivity”. In the case of “QVQLVESGGGLLQAGGSLRLSCAASGSIFTLYDMGRYRQAPGKERELVAAITSGGSTDYADSVKGRFTISRDYAKNTVFLQMNSLKPEDTAVYYCNAEAYPYWYRGASRDYDYWGQGTQVTVSS”, the “polyreactivity (PSR sort gate)” value is reported as “low polyreactivity”. With “QVQLVESGGGLLQAGGSLRLSCAASGSTFPSYAMGWYRQAPGKERELVAAINSGGGTNYADSVKGRFTISRDNAKNNVYLQMNSLKPEDTAVYYCAKSRYDYTKTDGGYWGQGTQVTVSS” the “polyreactivity (PSR sort gate)” value was “low polyreactivity”. For “QVQLVESGGGLLQAGGSLRLSCAASGSTFVYYAMGWYRQAPGKERELVASINSGGSTYYADSVKGRFRISRDNEKNTVYLQMNSLKPEDTAVYYCAATSIPPSVHLQDPTYDYWGQGTQVTVSS”, the “polyreactivity (PSR sort gate)” value was “low polyreactivity”. With “QVQLVESGGGLLQAGGSLRLSCAASGSTFYIYSMGCYRQAPGKERELVARISGAGGSTYYSDSVKGRFTISRDNAKNTVYFQMNCLNPEDTAVYYCAAVDIYKYYQYYACPYDSYDYWGQGTQVTVSS” the “polyreactivity (PSR sort gate)” value was “low polyreactivity”. For “QVQLVESGGGLLQAGGSLRLSCAASGSTIWSYAMGWYRQAPGKERELVASITWSGGSTYADSVKGRFTISRDNAKNTVYLQMNSLKPEDTAVYYCAADRGSYPDTGDYWGHGTQVTVSS”, the “polyreactivity (PSR sort gate)” value was “low polyreactivity”. In the case of “QVQLVESGGGLLQAGGSLRLSCAASGSTVGINAMGWYRQAPGKERELVASITRRGGSTYYADSVKGRFTISRDNAKNTVYLQMNSLKPEDTAVYYCNKTYRYGTPLYDYWGQGSQVTVSS”, the “polyreactivity (PSR sort gate)” value is reported as “high polyreactivity”. For “QVQLVESGGGLLQAGGSLRLSCAASGYTFASNAMGWYRQAPGKERELVAAITRGGSTNYADSVKGRFTISRDNAKNTVYLQMNSLKPEDTAVYYCAAPRYRHTRKGGYWGQGTQLTVSS”, the “polyreactivity (PSR sort gate)” value was “low polyreactivity”. In the case of “QVQLVESGGGLLQAGGSLRVSCAASGSTLVGNTMGWYRQAPGKESELLAAITGVGSTNYADSVKGRFTISRDNAKNSVYLQMNSLKPEDTAVYSCAAEYSYTYIVSYLYDMDYWGQATQVTVSS”, the “polyreactivity (PSR sort gate)” value is reported as “low polyreactivity”. In the case of “QVQLVESGGGLLQAGGSLSLICAASGFSIYKNAMGWYSQAPGKERELVAAITSSGGYTYYADSVKGRFTISRDNAKNTVYLQMNILKPEDTAVYYCAGSPQAYIADYDYWGQGTQVTVSS”, the “polyreactivity (PSR sort gate)” value is reported as “low polyreactivity”. For “QVQLVESGGGLVEAGGSLRLSCAAGGRIVDRYAMGWYRQAPGKEREVVAAISDRGGSTYYADSVKGRFTISRDNAKNTVYLQMNSLKPEDTAVYYCNKVYGWYSFTWGPTASDYWGQGTQVTVSS”, the “polyreactivity (PSR sort gate)” value was “low polyreactivity”. For “QVQLVESGGGLVEAGGSLRLSCAASGIFRYYAMGWYRQAPGKERELVASITGGGSTYYADSVKGRFTISRDNAKNTVYLQMNSLKPEDTAVYYCNTAGAYYRWTPYYYWGQGTQVTVSS”, the “polyreactivity (PSR sort gate)” value was “high polyreactivity”. In the case of “QVQLVESGGGLVEAGGSLRLSCAASGRIFLYKAMGWYRQAPVKERELVAAITASGGTTYYADSVKGRFTLSRDNAKNTVYLQMNSLKPEDTAVYYCNAYSYSGERYYWGQGTQVTVSS”, the “polyreactivity (PSR sort gate)” value is reported as “high polyreactivity”. In the case of “QVQLVESGGGLVEAGGSLRLSCAASGSNFPWNAMGWSIQAPGKESDLVAGISSRGGSTYYADSVKGRFTISRDNAKNTVYLQMNSLKPEDTAVYYCNAAAVRRGRLVKLDYWGQGTQVTVSS”, the “polyreactivity (PSR sort gate)” value is reported as “high polyreactivity”. For “QVQLVESGGGLVEAGGSLRLSCAASGSTFGYNAMGWYRQAPGKERELVAAISWSGGSTYYADSVKGRFTISRDNAKNTVYLQMNSLKPEDTAVYYCATPYVKWNDYWGQGTQVTVST”, the “polyreactivity (PSR sort gate)” value was “low polyreactivity”.
